Values belong to the binder of their own block, whether it stands above or below them.
Experiments:
[1] = target: T1, recombinant human erythroferrone (ERFE) (human, UniProt Q4G0M1 29-354); test: sandwich ELISA, biotinylated detection antibody (also used as coating antibody); coating antibodies 7H4, 17A5, 4C1
T1 construct: Secreted from transfected HEK293F cells and purified from the supernatant; also called human ERFE; hERFE
T1 sequence: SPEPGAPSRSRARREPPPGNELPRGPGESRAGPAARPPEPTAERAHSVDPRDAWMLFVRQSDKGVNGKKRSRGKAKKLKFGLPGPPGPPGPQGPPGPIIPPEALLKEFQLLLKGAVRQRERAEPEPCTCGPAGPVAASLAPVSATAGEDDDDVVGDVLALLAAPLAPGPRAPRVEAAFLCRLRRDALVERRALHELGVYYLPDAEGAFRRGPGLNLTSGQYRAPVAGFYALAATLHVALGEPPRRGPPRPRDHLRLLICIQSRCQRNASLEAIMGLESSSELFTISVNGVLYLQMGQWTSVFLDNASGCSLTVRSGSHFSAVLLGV

[2] = target: T1, recombinant human erythroferrone (ERFE); test: sandwich ELISA, biotinylated detection antibody; coating antibodies 7H4, 17A5, 4C1

binding result [1]: binds
B1: monoclonal antibody 17A5 (ATCC Accession Number PTA-123883) (antibody, mouse IgG1, kappa, V domains shown)
VH: QVQLQQPGSVLVRPGASVKLSCKASGYTFTSYWMHWAKQRPGQGLEWIGEIHPKSGDTNHNEKFKGKATLTVDTSSNTAYVDLSSLTSEDSAVYYCAREGITTVGFDLWGAGTTVTVSS
VL: QIVLTQSPAIMSASPGQKVTLTCSASSSVSYMNWVQQKSGTSPKRWIYDTSKLASGVPARFSGSGSGTSYSLTISSVEAEDAATYYCQQWSSHPYTFGGGTKLEIKR
notes: Mouse IgG1 from hybridoma; Biotinylated when used as detection antibody

binding result [2]: binds
B2: monoclonal antibody 9B12 (ATCC Accession Number PTA-123882) (antibody, mouse IgG1, kappa, V domains shown)
VH: QVQLQQSGPELVKPGASVRISCKASGYTFTSYYIHWVKQRPGQGLEWIAWIYPGNVNTEYNEKFKGKATLTADESSSTAYMQLSSLTSEDSAVFFCAREGITTNALDYWGQGTSVTVSS
VL: DIQMTQTTSSLSASLGDRVTISCRASQDISNYLNWYQQKPDGTVKLLIYYTSRLYSGVPSRFSGNGSGSDYSLTISNLEQEDIATYFCQQGHTLWTFGGGTKLEIKR
notes: as for B1

From patent US20200231668A1 (INTRINSIC LIFESCIENCES, published 2020)
